# Reference: the DeepSol protein solubility set
# Test: soluble on expression in E. coli; label from the status in PepcDB or PDB records
row,Sequence,soluble on expression in E. coli
1,MRQQTCTTVTLRQRPIRNGRISLYLDYYPAVRNPKTMKLSRREYLGFYIYATPKNAIELDYNNEILAKAELIRCRRQEAVINEEFGFMDRHKMRADFMAYFKEVCRKKDHKWHIVYLHFEKFVNGKCMFGEITVDLCNRFRDYLLHARQLKHTDKMVSRNSAASYFSLFRGVLKLAYRDKYLRENPNDFLEKIESRDIHKEFLTQDELKTLASTPCDIPVLRNASLFSCLTGLRISDILNLKWENLCTAPDLGHCIRLRTQKTQTEALLPISYEAYALCGEPGTGKVFKELRRCMTGYPLKAWIKKAGIQKHITFHCLSHSKLFYLLNISELSILKNVTANDLETSYILFLSQLCNIQRTL,not soluble
2,MAGLKRRASQVWPEEHGEQEHGLYSLHRMFDIVGTHLTHRDVRVLSFLFVDVIDDHERGLIRNGRDFLLALERQGRCDESNFRQVLQLLRIITRHDLLPYVTLKRRRAVCPDLVDKYLEETSIRYVTPRALSDPEPRPPQPSKTVPPHYPVVCCPTSGPQMCSKRPARGRATLGSQRKRRKSVTPDPKEKQTCDIRLRVRAEYCQHETALQGNVFSNKQDPLERQFERFNQANTILKSRDLGSIICDIKFSELTYLDAFWRDYINGSLLEALKGVFITDSLKQAVGHEAIKLLVNVDEEDYELGRQKLLRNLMLQALPLEHHHHHH,not soluble
3,PAQDNSRFVIRDRNWHPKALTPDYKTSIARSPRQALVSIPQSISETTGPNFSHLGFGAHDHDLLLNFNNGGLPIGERIIVAGRVVDQYGKPVPNTLVEMWQANAGGRHRHKNDRYLAPLDPNFGGVGRCLTDSDGYYSFRTIKPGPYPWRNGPNDWRPAHIHFGISGPSIATKLITQLYFEGDPLIPMCPIVKSIANPEAVQQLIAKLDMNNANPMDCLAYRFDIVLRGQRKTHFENC,soluble
4,MSLDDRSIRAEERSDKLMNLKIKNITCSIKKVPLKRPFITALHKVTEIEGLKIVVELSDGQTGTGTATPNEKVTGDTLQSSLDIVNQVIKPALINQDFKNWNKLLTTLQTCIVHNTAAKAAMDIALYQLKAKENNESLVNLLGSEKGKLTTDYTISIGSDDHMVSEAKSLVKDGFTAIKIKLGNNSVSHDIKTIQKISKAVGPDISLRIDCNQAWNYKDTLKASRIWAQDNLNIDFIEQPVLKDAISDLTLLSENSPYPIMADESVASYQDAINLIKHHACDYINIKLMKTGGLSEAIKINDLAQACGIKTMVGCMIEPVESIAAAAAFAVANKNVKFIDLDSIFMATQDPDLGKYLKIKNNEIILKDEGHHHHHH,soluble
5,MNIIGLDISKDTIDATLHKTNGSIHYIKFKNNDDGLKQFRLWIKGNRIRKVYIGMEATGIYYEKAADMLSSYYTVYVINPLKIKDYGKSRFNRTKTDKADSNLIADYIKRHQDTLIPYQIPKNKALQKLINLKNQLHQHQKQIKNRLHSTEEDFIRNIHQDLIDTIQDKMEQVKIAISEQIKKQTDNNHYRNLQTIPSIGKDTASVLYAQLTEKHFKTANQFVSYAGLNPAIIQSGTSVRGRGRLSRYGNRRLKSTLYMPALCAYRFNAFPKLINNLKKAGKPKMVIIVAIMRKLAKLAYYIVKTGQPYDAERHRLNQ,not soluble
6,SLIRSMTGFGSASKTQDDLSVSVELKSVNYRFKEVNARLPRPLLYFEDKLKQTILQHIQRGRIELFVSVDSDMLVEKRLEIDWPLLDEFVAAARDMKKRYQLSAEPDVMDFFKLDHVVQVHEEQTQNDKLEALIIDAAEEAVKGLCEMREKEGLLLAKDCLMHIDQLEELVRETELLAADVVSRYRERLYARIKEWTEDVLDESRLVTECAIFADRSDITEEITRLKSHFAQFRDILASGGAVGRKLDFLVQELNREANTIGSKANDHQITKLVVEMKSSIEKIKEQVQNIE,soluble
7,YGNMTEDHVMHLLQNADPLKVYPPLKGSFPENLRHLKNTMETIDWKVFESWMHHWLLFEMSRHSLEQKPTDAPPK,soluble
8,MAHHHHHHMMRRMWVPTFSAQQQHLHHAMGLKMLTYASTPSGSGVTSAASNEEMNLHDAAAIAPGPYRRVGNIFIVHCDDHPFKHSWEVNRMLRELRLEFKGQTTIVPDIPQVRKRIWRVRHIVKVDVLDLDEAKALIGVPEHISFTDLASQLPPSFGRVKAVPSPVIRSKMNFMKLRRMRLRDVLHRDALELRLLELKRSAMKNAEQQKHAQK,not soluble
9,MSAITAPLPTLDDLATLTLSIKAWGRELGFQEVGISGLDLAEHEQHLQRWLDAGYHGEMDYMAAHGSKRSHPDELVPGTLRVVSLRMDYLPGDTEMAQRLTEPEKAYVSRYALGRDYHKLIRKRLQQLAERIQQAIGPFGFRAFVDSAPVLEKAIAEQAGLGWIGKNTLVLNRKAGSFFFLGELFVDIPLPVDAPHATEHCGRCTACLDICPTAAFVGPYVLDARRCISYLTIELKTAIPEELRPLIGNRVFGCDDCQIVCPWNRFARPTDQSDFQPRHNLDNAGLAELFLWDEEKFLGSTEGSPLRRAGYERWLRNLAVGLGNAPSTIPVIEALQARRDYPSELVREHVEWALQRHGVAPL,not soluble
10,MGSDKIHHHHHHMSANRLPVTVVTGFLGSGKTTLLRHLLREGNQRLAVVVNEFGTVGLDGDLLKNCGLCPDDEVDERIVELNNGCLCCTVQEDFLPAMEALLLRSNQLDGIIIETSGLALPKPLLQALNWPAIRNKVFINGVVTLVDGYALSNGSPVSDLKSINEQMTNDNSIDHITPIDELFRDQLISADLVLVSRSDLLSAKDFLFVEEEVKKRGNSNANVLPISNGIIEPSVILGLCKEQNNIYRLDQNNQNQNQNQNHDHDHDHDHDHDHVDVISDHLRMETPIDQDVLREMFLRLVPEYQILRVKGKCWIEGKALPLQIQMVGPRFNSWFEAANENAWQPRQSGIDIVFLSLREGVKEAVVNSLCISTRIK,not soluble
11,SPVVVVTGASRGIGKAIALSLGKAGCKVLVNYARSAKAAEEVSKQIEAYGGQAITFGGDVSKEADVEAMMKTAIDAWGTIDVVVNNAGITRDTLLIRMKKSQWDEVIDLNLTGVFLCTQAATKIMMKKRKGRIINIASVVGLIGNIGQANYAAAKAGVIGFSKTAAREGASRNINVNVVCPGFIASDMTAKLGEDMEKKILGTIPLGRTGQPENVAGLVEFLALSPAASYITGQAFTIDGGIAI,soluble
12,YATPDNMLSRFGEQDLTLLTEREDSVPGEINLALLEQALSDASAEIDGYIAGRYVLPLTTVPAVLERNCCDIARYFLYGDKAPEQVEKRYAAVVKFLTAVSKGDISLGLATTGETADQSELVISIESAGSVFGRKSAKGF,not soluble
13,MGSDKIHHHHHHMKVDYHIHLEEGPYSIGWLAKINESLQHYEPLKEEKHSMEWLVKIQERLQRRVNEGPFTTKWIDLYLEEALRKGIKEVGIVDHLYRFYEAKEYYEKYVDISDSGLGRLQKEWLDQVRVASLHDFTKAIEEAKERWSKRGVTLKLGIEADYFIGGEQQLQSLLALGDFDYVIGSVHFLNGWGFDNPDTKEYFKEHDLYALYDTFFKTVECAVRSELFDIIAHLDNIKVFNYRLDENEQISYYKKIARALVETNTATEINAGLYYRYPVREMCPSPLYLQVLAKHEVPITLSSDAHYPNDLGKYVEENIKTLRNHDIAHLATFTKRVRTMRLLEEVTISK,not soluble
14,MLASIVISSVHSIGTGALECRATHRGHRAGPYLSSSETRHRAAISGTVDMRETKQGLRHSGRSPSVASPKIDELIGRPQPDTIRLSRGRPVRNS,not soluble
15,KESILAVLLYLFEYYFSENADLVRDRDSLQNSLIQVGFSPAEINKAFEWLDALAANRPTLTNPRVNGPVRVLHGPELDKLDVESRGFLLFLEQQGILNTEQRELVLDRAMALDQEELDLDDMKWVVLMVLFNQPGAEAAYAWMETQMFGNEPEQLH,not soluble
16,MGSDKIHHHHHHMSFEKTSELIEKSRELQEVYQQLVEDVGLDLWRFCRYLTGSPWDGEDLYQETLVKAFGSLYQRWQPTNPKAYLFRIATNTWIDQCRKAKRIVGTVDEMEGPVEEFSNDLELEHAFTRLFTLFPPRQVAVFLLKDVFAFTAEEVASMVRSTSNGVYATSSRVRKKLKETASLEEELSSNGRPSPEQSEVIQQYLEAFNAGDLGKLFDLMSDEVHIDASLGFQEYSKEEMKKGSMQYGLPGFRAEPFVLWGKTVLVVLVDRDAGPLIHDIQFQEIENGKIVYHKSYYFCKEFLMGAAKELQLQVQLDKAAVHWRHSLDEGEL,not soluble
17,MSRTAVREAVKTLTAKGMVLPRPRIGTRVMPQSNWNFLDQELLTWWITEENFHQVIDHFLVMRICLEPQACLLAATVGTAEQKAHLNTLMAEMAALKENFRRERWIEVDMAWHEHIYEMSANPFLTSFASLFHSVYHTYFTSITSDTVIKLDLHQAIVDAIIQSDGDAAFKACQALLRSPDK,not soluble
18,MKVSDILTVAIRLEEEGERFYRELSEHFNGEIKKTFLELADQERIHAEIFRKMSDQENWDEVDSYLAGYAFYEVFPDTSEILRRKDLTLKEVLDIAISVEKDSIILYYELKDGLVNSDAQKTVKKIIDQEKEHLRKLLEMKREST,not soluble
19,MAVNLLKKNSLALVASLLLAGHVQATELLNSSYDVSRELFAALNPPFEQQWAKDNGGDKLTIKQSHAGSSKQALAILQGLKADVVTYNQVTDVQILHDKGKLIPADWQSRLPNNSSPFYSTMGFLVRKGNPKNIHDWNDLVRSDVKLIFPNPKTSGNARYTYLAAWGAADKADGGDKGKTEQFMTQFLKNVEVFDTGGRGATTTFAERGLGDVLISFESEVNNIRKQYEAQGFEVVIPKTNILAEFPVAWVDKNVQANGTEKAAKAYLNWLYSPQAQTIITDYYYRVNNPEVMDKLKDKFPQTELFRVEDKFGSWPEVMKTHFTSGGELDKLLAAGRN,soluble
20,MKERESVQDQSDPSETDSEELLQLDGKSISEWVSEIDAISKEVEAELVSRDIGCHLVQVLEAVNTVLFDLRGFKRTSITLDPENSYLHSVLNCRCSTAFLISVIYIEVCKRLNVPIVGSPVGEDFLIWPKTEYPEELFKATSGQSLFSIVNGRCVDDPGSMASDLTAKSLQDLDMATNRDIIGIALANLIRLHWRRASKSSHGLMLTSPLSQLNNISSSNFPLLRPQDLRLAIAAAERLLILQPHNWALRRDLGMMLYYDRQYGEAVQELSICMAFAPPEEEAVLEPFVERLHLLRLISSLKPLGSDRLTVP,soluble
21,MKNIRNFSIIAHIDHGKSTLSDRIIQICGGLSDREMEAQVLDSMDLERERGITIKAQSVTLDYKASDGETYQLNFIDTPGHVDFSYEVSRSLAACEGALLVVDAGQGVEAQTLANCYTAMEMDLEVVPVLNKIDLPAADPERVAEEIEDIVGIDATDAVRCSAKTGVGVQDVLERLVRDIPPPEGDPEGPLQALIIDSWFDNYLGVVSLIRIKNGTLRKGDKVKVMSTGQTYNADRLGIFTPKQVDRTELKCGEVGWLVCAIKDIHGAPVGDTLTLARNPAEKALPGFKKVKPQVYAGLFPVSSDDYEAFRDALGKLSLNDASLFYEPESSSALGFGFRCGFLGLLHMEIIQERLEREYDLDLITTAPTVVYEVETTSREVIYVDSPSKLPAVNNIYELREPIAECHMLLPQAYLGNVITLCVEKRGVQTNMVYHGNQVALTYEIPMAEVVLDFFDRLKSTSRGYASLDYNFKRFQASDMVRVDVLINGERVDALALITHRDNSQNRGRELVEKMKDLIPRQQFDIAIQAAIGTHIIARSTVKQLRKNVLAKCYGGDISRKKKLLQKQKEGKKRMKQIGNVELPQEAFLAILHVGKDNK,soluble
22,MGSDKIHHHHHHMKLETIDYRAADSAKRFVESLRETGFGVLSNHPIDKELVERIYTEWQAFFNSEAKNEFMFNRETHDGFFPASISETAKGHTVKDIKEYYHVYPWGRIPDSLRANILAYYEKANTLASELLEWIETYSPDEIKAKFSIPLPEMIANSHKTLLRILHYPPMTGDEEMGAIRAAAHEDINLITVLPTANEPGLQVKAKDGSWLDVPSDFGNIIINIGDMLQEASDGYFPSTSHRVINPEGTDKTKSRISLPLFLHPHPSVVLSERYTADSYLMERLRELGVL,not soluble
